We go through one molecule from patent publication US20030082643A1 (Bristol-Myers Squibb, published 2003).

One test deals with T1, soluble recombinant CD89 (human, UniProt P24071 22-227, limits assumed).
T1 construct: Soluble recombinant CD89, coated on ELISA plates, immobilised on BIAcore chips or in solution; also called sCD89; recombinant soluble CD89 antigen
Description: ELISA. Here is the method: Solid-phase ELISA based assays were employed in the binding studies. Briefly, soluble recombinant CD89 in PBS was coated onto 96-well microtiter plates (1 μg/ml) and incubated overnight at room temperature. The plates were then washed with PBS-0.2%Tween-20 (PBST) and blocked with chicken serum albumin in PBST for 1 hour at room temperature. Supernatants from the anti-CD89 producing hybridomas or purified antibody (in PBS) were added to the wells and incubated for 2 hours at room temperature. The plates were washed with PBST as above and then incubated with 50 μl of HRP-conjugated goat-anti-human for 1 hour at room temperature. After washing, 100 μl of ABTS (150 mg 2,2′-azino-bis (3-ethylbenzthiazoline-6-sulfonic acid in 500 ml of 0.1 M citric acid, pH 4.35)/H₂O₂ (10 μl 30% H₂O₂ per 10 ml of ABTS solution) chromagen/substrate solution was added to each well and the samples read with a microplate reader at a wavelength of 405 nm.
Hybridomas which produced human IgG that bound CD89 were further characterized for isotype using ELISA (Human Kappa) (same protocol described above). […] Purified antibodies were extensively dialyzed against 0.3 M sodium carbonate buffer, pH 9.5, for labeling with […] (FITC). […]
In general terms: ELISA stands for enzyme-linked immunosorbent assay.

For test [1], the target named is T2, human CD89 expressed on cells (human, UniProt P24071 22-287).
T2 construct: whole, on cells; also called FcalphaRI; 2a1.6/CD89 cells
The test can be described thus: flow cytometry on 2a1.6/CD89 cells, human PMNL and PMNL of human-CD89 transgenic mice. On the technique in general: In flow cytometry, cells or beads pass a laser one at a time.

T2 sequence (P24071 22-287): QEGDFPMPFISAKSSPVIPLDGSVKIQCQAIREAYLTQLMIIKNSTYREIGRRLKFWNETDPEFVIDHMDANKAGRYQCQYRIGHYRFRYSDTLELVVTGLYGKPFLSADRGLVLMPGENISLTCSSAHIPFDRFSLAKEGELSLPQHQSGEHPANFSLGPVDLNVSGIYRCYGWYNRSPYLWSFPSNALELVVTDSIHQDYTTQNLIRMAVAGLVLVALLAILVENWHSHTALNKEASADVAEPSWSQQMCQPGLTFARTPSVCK
T1 sequence (P24071 22-227 limits assumed): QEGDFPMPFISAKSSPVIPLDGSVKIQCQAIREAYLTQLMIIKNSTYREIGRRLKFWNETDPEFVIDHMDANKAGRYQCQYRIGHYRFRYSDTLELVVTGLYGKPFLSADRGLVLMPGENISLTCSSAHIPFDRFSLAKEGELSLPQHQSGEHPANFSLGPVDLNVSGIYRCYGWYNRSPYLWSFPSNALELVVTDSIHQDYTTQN

B1: human monoclonal antibody (HuMAb) 8.2 (antibody, V domains shown)
VH: QVQLVESGGGVVQPGRSLRLSCAASGFTFSSYAMHWVRQAPGKGLEWVAVISYDGRNKDYADSVKGRFTISRDNSKNTLYLQMNSLRAEDTAVHYCARLDWGYDAFDIWGQGTMVTVSS
VL: not shown
notes: Human IgG1 kappa from hybridoma; also called 8D2
Consider B1, for which the binding result (with soluble recombinant CD89; in test [1]) was “binds” each time.
